Experimental findings from PMC6557989, “The Molecular Basis of Human IgG-Mediated Enhancement of C4b-Binding Protein Recruitment to Group A Streptococcus” (Frontiers in Immunology, 2019) are described below.

The assay deals with T1, Protein H (Streptococcus pyogenes (strain AP1), ^125I-labelled in the plate binding assay; Alexa-488 succinimidyl ester-labelled in thermophoresis; unlabelled elsewhere).
T1 construct: Protein H, surface protein of the M protein family of Streptococcus pyogenes AP1; recombinant; theoretical mass of the monomer 42 kDa; written as the single chain because its self-association is itself measured; also called ^125I-Protein H; source: E. coli, expressed and purified (previously described protocols)
T1 chain: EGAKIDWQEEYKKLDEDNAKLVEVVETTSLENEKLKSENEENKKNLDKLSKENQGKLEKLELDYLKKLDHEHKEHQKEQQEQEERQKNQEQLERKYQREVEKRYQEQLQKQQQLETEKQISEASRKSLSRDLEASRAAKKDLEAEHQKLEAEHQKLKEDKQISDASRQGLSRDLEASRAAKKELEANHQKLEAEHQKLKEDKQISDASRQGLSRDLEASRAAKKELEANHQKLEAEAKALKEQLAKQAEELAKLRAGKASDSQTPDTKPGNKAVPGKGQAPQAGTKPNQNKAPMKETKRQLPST
The experiment in a line: native gel or EMSA; native horizontal agarose gel, 75 mM sodium barbital pH 8.6, Coomassie blue; two proteins pre-incubated in PBS 1 h at 37°C (ratios as C4BP:IgG:Protein H 1:10:10). Conditions: both partners purified.

B1: Denosumab (monoclonal human IgG2) (antibody, V domains shown)
VH: EVQLLESGGGLVQPGGSLRLSCAASGFTFSSYAMSWVRQAPGKGLEWVSGITGSGGSTYYADSVKGRFTISRDNSKNTLYLQMNSLRAEDTAVYYCAKDPGTTVIMSWFDPWGQGTLVTVSS
VL: EIVLTQSPGTLSLSPGERATLSCRASQSVRGRYLAWYQQKPGQAPRLLIYGASSRATGIPDRFSGSGSGTDFTLTISRLEPEDFAVFYCQQYGSSPRTFGQGTKVEIK
notes: constant region of the human IgG2 heavy chain; it is here the ligand of Protein H through its Fc; Recombinantly expressed drug antibody; also called hu-IgG2; source: bought: Amgen
Regarding B1, the binding result is listed as “binds”.
